The values that follow come from patent US20200055923A1 (HEXAL, published 2020).

The target of the assay is T1, VEGF165 (human VEGF-A), immobilized (human, UniProt P15692-4 27-191).
T1 construct: Immobilized on the Biacore chip; also called vascular endothelial growth factor A
The experiment in a line: SPR (Biacore), VEGF165 immobilized. A general note: Surface plasmon resonance follows binding to a sensor surface in real time, without labels.

T1 sequence (P15692 other isoform, or with tags, fused parts or gaps limits assumed): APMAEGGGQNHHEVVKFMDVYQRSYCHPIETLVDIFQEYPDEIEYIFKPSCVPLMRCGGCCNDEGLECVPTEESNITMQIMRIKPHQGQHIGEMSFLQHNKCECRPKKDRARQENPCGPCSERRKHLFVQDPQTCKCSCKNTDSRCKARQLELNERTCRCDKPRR
Procedure: To study the binding of bevacizumab to VEGF, a surface plasmon resonance (SPR) assay using Biacore™ was carried out. The interaction between bevacizumab and its target, immobilized VEGF₁₆₅, is monitored in real time. Analysis of the association and dissociation of the binding partners allows the retrieval of the kinetic parameters kₐ (association rate constant) and kd (dissociation rate constant), which quantifies the interaction between bevacizumab or its variants and VEGF₁₆₅. Furthermore, the equilibrium dissociation constant KD is calculated using the formula KD=kd/kₐ.

B1: bevacizumab CEX peak 1, fraction enriched in CDR-H1 glycosylated bevacizumab (antibody, human IgG1, kappa, V domains shown)
VH: EVQLVESGGGLVQPGGSLRLSCAASGYTFTNYGMNWVRQAPGKGLEWVGWINTYTGEPTYAADFKRRFTFSLDTSKSTAYLQMNSLRAEDTAVYYCAKYPHYYGSSHWYFDVWGQGTLVTVSS
VL: DIQMTQSPSSLSASVGDRVTITCSASQDISNYLNWYQQKPGKAPKVLIYFTSSLHSGVPSRFSGSGSGTDFTLTISSLQPEDFATYYCQQYSTVPWTFGQGTKVEIKR
modifications: N-linked complex-type glycan (core-fucosylated, mono- to tetra-antennary, partly sialylated) at N31 of the heavy chain, in CDR-H1
notes: Humanized IgG1; also called enriched CDR-H1 glycosylated bevacizumab obtained from CEX; Fd-glycosylated variant
One may read the Kd as the constant that tells how readily two partners part at equilibrium. Read a high Kd as a looser complex. The molecule B1 returned a Kd of 0.235 nM.
